According to patent publication US11278600B2, “Human alpha-galactosidase variants” (Codexis, Inc., priority 2014, dated 2022):

Legend:
Type in all cases: biochemical
[1] = HTP-analysis of yeast culture supernatants, no challenge (MUGal hydrolysis); conditions: activity of the variant/activity of Rd3BB (SEQ ID NO: 13)
Method in brief: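 Activity read as 4-methylumbelliferyl α-D-galactopyranoside hydrolysis: fluorescence (355/448 nm) after sodium carbonate stop, following 30-180 min at 37° C with 2 mM MUGal stock at pH 4.6–4.8. Enzyme source is unchallenged culture supernatant of INVSc1 yeast expressing GLA variants, grown 66-84 h at 30° C.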

[2] = HTP-analysis of supernatants pretreated with acid (MUGal hydrolysis); conditions: activity of the variant/activity of Rd3BB (SEQ ID NO: 13); challenge at pH 3.7
Method in brief: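 MUGal hydrolysis was tracked by fluorescence (Ex 355 nm, Em 448 nm) after a 30-180 min reaction at 37° C. in pH 4.8 McIlvaine/citrate buffer, stopped with 1 M sodium carbonate. Beforehand, yeast (INVSc1) culture supernatants carrying GLA variants were held 1-3 h at 37° C. in acidic McIlvaine buffer, pH 3.3-4.3.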

[3] = HTP-analysis of supernatants pretreated with base (MUGal hydrolysis); conditions: activity of the variant/activity of Rd3BB (SEQ ID NO: 13); challenge at pH 9.7
Method in brief: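 GLA variants were secreted by transformed INVSc1 yeast grown 66-84 h at 30° C. Supernatants were exposed to neutral-to-basic buffers (pH 7.0-9.7) at 37° C for 1-18 h, then assayed with MUGal in acidic citrate/McIlvaine buffer, with fluorescence read after quenching.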

B1: 572 (protein)
chain: LDNGLARTPTMGWLHWERFMCNLDCQEEPDSCISEKLFMEMAERMVSEGWKDAGYEYLCIDDCWMAPQRDSEGRLQADPQRFPHGIRQLANHVHSKGLKLGIYADVGNKTCAGFPGSFGYYDIDAQTFADWGVDLLKFDGCYCDSLENLADGYKHMSLALNRTGRSIVYSCEWPLYMWPFQKPNYTEIRQYCNHWRNFADIDDSWASIKSILDWTSRNQERIVDVAGPGGWNDPDMLVIGNFGLSWDQQVTQMALWAIMAAPLFMSNDLRHISPQAKALLQDKDVIAINQDPLGKQGYQLRKGDLFEVWERPLSGDAWAVAIINRQEIGGPRSYTIPVASLGKGVACNPACFITQLLPVKRQLGFYNWTSRLKSHINPTGTVLLQLENTMQMSLKDLL
modifications: Synthetic Polypeptide sequence of Variant No. 572 of mature Human GLA
Relative Activity of GLA Variants After No Challenge (NC) [1]: + (+ = 1.5 to 5 relative activity over Rd3BB (SEQ ID NO: 13))
Relative Activity of GLA Variants After Challenge at pH 3.7 [2]: +++ (+++ = >10 relative activity over Rd3BB (SEQ ID NO: 13))
Relative Activity of GLA Variants After Challenge at pH 9.7 [3]: ++ (++ = >5 to 10 relative activity over Rd3BB (SEQ ID NO: 13))

B2: 574 (protein)
chain: LDNGLARTPTMGWLHWERFMCNLDCQEEPDSCISEKLFMEMAERMVSEGWKDAGYEYLCIDDCWMAPQRDSEGRLQADPQRFPHGIRQLANHVHSKGLKLGIYADVGNKTCAGFPGSFGYYDIDAQTFADWGVDLLKFDGCYCDSLENLADGYKHMSLALNRTGRSIVYSCEWPLYMWPFQKPNYTEIRQYCNHWRNFADIDDSWASIKSILDWTSRNQERIVDVAGPGGWNDPDMLVIGNFGLSWDQQVTQMALWAIMAAPLFMSNDLRHISPQAKALLQDKDVIAINQDPLGKQGYQLRKGDNFEVWERPLHGDAWAVAIINRQEIGGPRSYTIPVASLGKGVACNPACFITQLLPVKRQLGFYNWTSRLKSHINPTGTVLLQLENTMQMSLKDLL
modifications: Synthetic Polypeptide sequence of Variant No. 574 of mature Human GLA
Relative Activity of GLA Variants After No Challenge (NC) [1]: + (+ = 1.5 to 5 relative activity over Rd3BB (SEQ ID NO: 13))
Relative Activity of GLA Variants After Challenge at pH 3.7 [2]: + (+ = 1.5 to 5 relative activity over Rd3BB (SEQ ID NO: 13))
Relative Activity of GLA Variants After Challenge at pH 9.7 [3]: ++ (++ = >5 to 10 relative activity over Rd3BB (SEQ ID NO: 13))

B3: 573 (protein)
chain: LDNGLARTPTMGWLHWERFMCNLDCQEEPDSCISEKLFMEMAERMVSEGWKDAGYEYLCIDDCWMAPQRDSEGRLQADPQRFPHGIRQLANHVHSKGLKLGIYADVGNKTCAGFPGSFGYYDIDAQTFADWGVDLLKFDGCYCDSLENLADGYKHMSLALNRTGRSIVYSCEWPLYMWPFQKPNYTEIRQYCNHWRNFADIDDSWASIKSILDWTSRNQERIVDVAGPGGWNDPDMLVIGNFGLSWDQQVTQMALWAIMAAPLFMSNDLRHISPQAKALLQDKDVIAINQDPLGKQGYQLRKGDNFEVWERPLAGDAWAVAIINRQEIGGPRSYTIPVASLGKGVACNPACFITQLLPVKRQLGFYNWTSRLKSHINPTGTVLLQLENTMQMSLKDLL
modifications: Synthetic Polypeptide sequence of Variant No. 573 of mature Human GLA
Relative Activity of GLA Variants After No Challenge (NC) [1]: + (+ = 1.5 to 5 relative activity over Rd3BB (SEQ ID NO: 13))
Relative Activity of GLA Variants After Challenge at pH 3.7 [2]: + (+ = 1.5 to 5 relative activity over Rd3BB (SEQ ID NO: 13))
Relative Activity of GLA Variants After Challenge at pH 9.7 [3]: ++ (++ = >5 to 10 relative activity over Rd3BB (SEQ ID NO: 13))

B4: 575 (protein)
chain: LDNGLARTPTMGWLHWERFMCNLDCQEEPDSCISEKLFMEMAERMVSEGWKDAGYEYLCIDDCWMAPQRDSEGRLQADPQRFPHGIRQLANHVHSKGLKLGIYADVGNKTCAGFPGSFGYYDIDAQTFADWGVDLLKFDGCYCDSLENLADGYKHMSLALNRTGRSIVYSCEWPLYMWPFQKPNYTEIRQYCNHWRNFADIDDSWASIKSILDWTSRNQERIVDVAGPGGWNDPDMLVIGNFGLSWDQQVTQMALWAIMAAPLFMSNDLRHISPQAKALLQDKDVIAINQDPLGKQGYQLRKGDNFEVWERPLNGDAWAVAIINRQEIGGPRSYTIPVASLGKGVACNPACFITQLLPVKRQLGFYNWTSRLKSHINPTGTVLLQLENTMQMSLKDLL
modifications: Synthetic Polypeptide sequence of Variant No. 575 of mature Human GLA
Relative Activity of GLA Variants After No Challenge (NC) [1]: + (+ = 1.5 to 5 relative activity over Rd3BB (SEQ ID NO: 13))
Relative Activity of GLA Variants After Challenge at pH 3.7 [2]: + (+ = 1.5 to 5 relative activity over Rd3BB (SEQ ID NO: 13))
Relative Activity of GLA Variants After Challenge at pH 9.7 [3]: ++ (++ = >5 to 10 relative activity over Rd3BB (SEQ ID NO: 13))

B5: 578 (protein)
chain: LDNGLARTPTMGWLHWERFMCNLDCQEEPDSCISEKLFMEMAERMVSEGWKDAGYEYLCIDDCWMAPQRDSEGRLQADPQRFPHGIRQLANHVHSKGLKLGIYADVGNKTCAGFPGSFGYYDIDAQTFADWGVDLLKFDGCYCDSLENLADGYKHMSLALNRTGRSIVYSCEWPLYMWPFQKPNYTEIRQYCNHWRNFADIDDSWASIKSILDWTSRNQERIVDVAGPGGWNDPDMLVIGNFGLSIDQQVTQMALWAIMAAPLFMSNDLRHISPQAKALLQDKDVIAINQDPLGKQGYQLRKGDNFEVWERPLSGDAWAVAIINRQEIGGPRSYTIPVASLGKGVACNPACFITQLLPVKRQLGFYNWTSRLKSHINPTGTVLLQLENTMQMSLKDLL
modifications: Synthetic Polypeptide sequence of Variant No. 578 of mature Human GLA
Relative Activity of GLA Variants After No Challenge (NC) [1]: + (+ = 1.5 to 5 relative activity over Rd3BB (SEQ ID NO: 13))
Relative Activity of GLA Variants After Challenge at pH 3.7 [2]: +++ (+++ = >10 relative activity over Rd3BB (SEQ ID NO: 13))
Relative Activity of GLA Variants After Challenge at pH 9.7 [3]: ++ (++ = >5 to 10 relative activity over Rd3BB (SEQ ID NO: 13))

B6: 577 (protein)
chain: LDNGLARTPTMGWLHWERFMCNLDCQEEPDSCISEKLFMEMAERMVSEGWKDAGYEYLCIDDCWMAPQRDSEGRLQADPQRFPHGIRQLANHVHSKGLKLGIYADVGNKTCAGFPGSFGYYDIDAQTFADWGVDLLKFDGCYCDSLENLADGYKHMSLALNRTGRSIVYSCEWPLYMWPFQKPNYTEIRQYCNHWRNFADIDDSWASIKSILDWTSRNQERIVDVAGPGGWNDPDMLVIGNFGLSADQQVTQMALWAIMAAPLFMSNDLRHISPQAKALLQDKDVIAINQDPLGKQGYQLRKGDNFEVWERPLSGDAWAVAIINRQEIGGPRSYTIPVASLGKGVACNPACFITQLLPVKRQLGFYNWTSRLKSHINPTGTVLLQLENTMQMSLKDLL
modifications: Synthetic Polypeptide sequence of Variant No. 577 of mature Human GLA
Relative Activity of GLA Variants After No Challenge (NC) [1]: + (+ = 1.5 to 5 relative activity over Rd3BB (SEQ ID NO: 13))
Relative Activity of GLA Variants After Challenge at pH 3.7 [2]: +++ (+++ = >10 relative activity over Rd3BB (SEQ ID NO: 13))
Relative Activity of GLA Variants After Challenge at pH 9.7 [3]: ++ (++ = >5 to 10 relative activity over Rd3BB (SEQ ID NO: 13))

B7: 576 (protein)
chain: LDNGLARTPTMGWLHWERFMCNLDCQEEPDSCISEKLFMEMAERMVSEGWKDAGYEYLCIDDCWMAPQRDSEGRLQADPQRFPHGIRQLANHVHSKGLKLGIYADVGNKTCAGFPGSFGYYDIDAQTFADWGVDLLKFDGCYCDSLENLADGYKHMSLALNRTGRSIVYSCEWPLYMWPFQKPNYTEIRQYCNHWRNFADIDDSWASIKSILDWTSRNQERIVDVAGPGGWNDPDMLVIGNFGLSWDQQVTQMALWAIMAAPLFMSNDLRHISPQAKALLQDKDVIAINQDPLGKQGYQLRKGDNFEVWERPLYGDAWAVAIINRQEIGGPRSYTIPVASLGKGVACNPACFITQLLPVKRQLGFYNWTSRLKSHINPTGTVLLQLENTMQMSLKDLL
modifications: Synthetic Polypeptide sequence of Variant No. 576 of mature Human GLA
Relative Activity of GLA Variants After No Challenge (NC) [1]: + (+ = 1.5 to 5 relative activity over Rd3BB (SEQ ID NO: 13))
Relative Activity of GLA Variants After Challenge at pH 3.7 [2]: + (+ = 1.5 to 5 relative activity over Rd3BB (SEQ ID NO: 13))
Relative Activity of GLA Variants After Challenge at pH 9.7 [3]: ++ (++ = >5 to 10 relative activity over Rd3BB (SEQ ID NO: 13))

B8: 579 (protein)
chain: LDNGLARTPTMGWLHWERFMCNLDCQEEPDSCISEKLFMEMAERMVSEGWKDAGYEYLCIDDCWMAPQRDSEGRLQADPQRFPHGIRQLANHVHSKGLKLGIYADVGNKTCAGFPGSFGYYDIDAQTFADWGVDLLKFDGCYCDSLENLADGYKHMSLALNRTGRSIVYSCEWPLYMWPFQKPNYTEIRQYCNHWRNFADIDDSWASIKSILDWTSRNQERIVDVAGPGGWNDPDMLVIGNFGLSPDQQVTQMALWAIMAAPLFMSNDLRHISPQAKALLQDKDVIAINQDPLGKQGYQLRKGDNFEVWERPLSGDAWAVAIINRQEIGGPRSYTIPVASLGKGVACNPACFITQLLPVKRQLGFYNWTSRLKSHINPTGTVLLQLENTMQMSLKDLL
modifications: Synthetic Polypeptide sequence of Variant No. 579 of mature Human GLA
Relative Activity of GLA Variants After No Challenge (NC) [1]: + (+ = 1.5 to 5 relative activity over Rd3BB (SEQ ID NO: 13))
Relative Activity of GLA Variants After Challenge at pH 3.7 [2]: +++ (+++ = >10 relative activity over Rd3BB (SEQ ID NO: 13))
Relative Activity of GLA Variants After Challenge at pH 9.7 [3]: ++ (++ = >5 to 10 relative activity over Rd3BB (SEQ ID NO: 13))
